# Measurements from PMC10620413, “Dimeric Transmembrane Structure of the SARS-CoV-2 E Protein” (Communications Biology, 2023).
# Tests used:
# [1] = target: SARS-CoV-2 E protein transmembrane domain E_(12–37) (SARS-CoV-2 (isolate Wuhan-Hu-1)); test: SDS-PAGE
# [2] = target: the molecule itself; test: SDS-PAGE
Molecule,stoichiometry N [1],stoichiometry N [2]
SARS-CoV-2 E protein transmembrane domain E_(12–37) (domain or fragment),2,–
"SNAETGTLIVNSVLLFLAFVVFLLVTLAILTALRLSA (domain or fragment, not shown: MBP, N-terminal, cleaved) [SARS-CoV-2 E protein fragment E_(8–41)]",–,2
